Laboratory results reported in patent US20140087995A1 (published 2014).
Numbered stars: 1 amine (or outer) side, 2 acyl side, 3 side chain; on linkers, the order of the positions; unused ones are H or OH. Bridge positions count the residues as written; N and C are the ends. Side chains are listed from the residue outwards. Ends that are not written are not given here. * marks the point of attachment. C20 diacid = O=C(O)CCCCCCCCCCCCCCCCCCC(=O)*; γGlu = O=C(O)[C@H](CCC(=O)[*:2])N[*:1]; AEEA = NCCOCCOCC(=O)O

T1: human calcitonin receptor (human, UniProt P30988 25-474)
T1 sequence (looked up): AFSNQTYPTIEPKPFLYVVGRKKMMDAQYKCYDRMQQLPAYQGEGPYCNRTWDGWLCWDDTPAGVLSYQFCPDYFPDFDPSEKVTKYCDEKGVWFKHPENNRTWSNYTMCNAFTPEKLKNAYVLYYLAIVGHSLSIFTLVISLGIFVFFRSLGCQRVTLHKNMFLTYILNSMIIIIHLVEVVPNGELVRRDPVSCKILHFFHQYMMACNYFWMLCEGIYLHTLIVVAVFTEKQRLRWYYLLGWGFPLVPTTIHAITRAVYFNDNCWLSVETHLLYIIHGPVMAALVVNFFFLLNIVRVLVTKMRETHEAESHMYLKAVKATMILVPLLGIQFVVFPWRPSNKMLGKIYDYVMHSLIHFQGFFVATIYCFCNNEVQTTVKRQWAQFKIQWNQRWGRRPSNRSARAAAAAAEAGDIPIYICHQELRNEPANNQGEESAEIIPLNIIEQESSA


What follows are binders tested against T1, human calcitonin receptor (assay: cell-based or functional assay).

hCTR funct. EC50 [nM]	Binder
4.35	K([AEEA-γGlu-C20 diacid])CNTATCATQRLANFLRHSSPNFGAIPSSTNVGSNTY-NH2 (disulfide 2-7; N-terminus assumed; SMILES CC[C@H](C)[C@H](NC(=O)[C@H](C)NC(=O)CNC(=O)[C@H](Cc1ccccc1)NC(=O)[C@H](CC(N)=O)NC(=O)[C@@H]1CCCN1C(=O)[C@H](CO)NC(=O)[C@H](CO)NC(=O)[C@H](Cc1c[nH]cn1)NC(=O)[C@H](CCCNC(=N)N)NC(=O)[C@H](CC(C)C)NC(=O)[C@H](Cc1ccccc1)NC(=O)[C@H](CC(N)=O)NC(=O)[C@H](C)NC(=O)[C@H](CC(C)C)NC(=O)[C@H](CCCNC(=N)N)NC(=O)[C@H](CCC(N)=O)NC(=O)[C@@H](NC(=O)[C@H](C)NC(=O)[C@@H]1CSSC[C@H](NC(=O)[C@@H](N)CCCCNC(=O)COCCOCCNC(=O)CC[C@H](NC(=O)CCCCCCCCCCCCCCCCCCC(=O)O)C(=O)O)C(=O)N[C@@H](CC(N)=O)C(=O)N[C@@H]([C@@H](C)O)C(=O)N[C@@H](C)C(=O)N[C@@H]([C@@H](C)O)C(=O)N1)[C@@H](C)O)C(=O)N1CCC[C@H]1C(=O)N[C@@H](CO)C(=O)N[C@@H](CO)C(=O)N[C@H](C(=O)N[C@@H](CC(N)=O)C(=O)N[C@H](C(=O)NCC(=O)N[C@@H](CO)C(=O)N[C@@H](CC(N)=O)C(=O)N[C@H](C(=O)N[C@@H](Cc1ccc(O)cc1)C(N)=O)[C@@H](C)O)C(C)C)[C@@H](C)O, h-amylin derivative; disulfide bridge and C-terminal amide as told for human amylin; also called compound 41)
5.46	K([γGlu-C20 diacid])CNTATCATQRLANFLRHSSPNFGAIPSSTNVGSKTY-NH2 (disulfide 2-7; N-terminus assumed; SMILES CC[C@H](C)[C@H](NC(=O)[C@H](C)NC(=O)CNC(=O)[C@H](Cc1ccccc1)NC(=O)[C@H](CC(N)=O)NC(=O)[C@@H]1CCCN1C(=O)[C@H](CO)NC(=O)[C@H](CO)NC(=O)[C@H](Cc1c[nH]cn1)NC(=O)[C@H](CCCNC(=N)N)NC(=O)[C@H](CC(C)C)NC(=O)[C@H](Cc1ccccc1)NC(=O)[C@H](CC(N)=O)NC(=O)[C@H](C)NC(=O)[C@H](CC(C)C)NC(=O)[C@H](CCCNC(=N)N)NC(=O)[C@H](CCC(N)=O)NC(=O)[C@@H](NC(=O)[C@H](C)NC(=O)[C@@H]1CSSC[C@H](NC(=O)[C@@H](N)CCCCNC(=O)CC[C@H](NC(=O)CCCCCCCCCCCCCCCCCCC(=O)O)C(=O)O)C(=O)N[C@@H](CC(N)=O)C(=O)N[C@@H]([C@@H](C)O)C(=O)N[C@@H](C)C(=O)N[C@@H]([C@@H](C)O)C(=O)N1)[C@@H](C)O)C(=O)N1CCC[C@H]1C(=O)N[C@@H](CO)C(=O)N[C@@H](CO)C(=O)N[C@H](C(=O)N[C@@H](CC(N)=O)C(=O)N[C@H](C(=O)NCC(=O)N[C@@H](CO)C(=O)N[C@@H](CCCCN)C(=O)N[C@H](C(=O)N[C@@H](Cc1ccc(O)cc1)C(N)=O)[C@@H](C)O)C(C)C)[C@@H](C)O, h-amylin derivative; disulfide bridge and C-terminal amide as told for human amylin; also called compound 35) [N^ε1-[(4S)-4-carboxy-4-(19-carboxynonadecanoylamino)butanoyl]-[Arg17,Pro21,Pro27,Lys35]-h-amylin]
14.1	K([γGlu-γGlu-C20 diacid])CNTATCATQRLADFLRHSSPNFGAIPSSTNVGSRTY-NH2 (disulfide 2-7; N-terminus assumed; SMILES CC[C@H](C)[C@H](NC(=O)[C@H](C)NC(=O)CNC(=O)[C@H](Cc1ccccc1)NC(=O)[C@H](CC(N)=O)NC(=O)[C@@H]1CCCN1C(=O)[C@H](CO)NC(=O)[C@H](CO)NC(=O)[C@H](Cc1c[nH]cn1)NC(=O)[C@H](CCCNC(=N)N)NC(=O)[C@H](CC(C)C)NC(=O)[C@H](Cc1ccccc1)NC(=O)[C@H](CC(=O)O)NC(=O)[C@H](C)NC(=O)[C@H](CC(C)C)NC(=O)[C@H](CCCNC(=N)N)NC(=O)[C@H](CCC(N)=O)NC(=O)[C@@H](NC(=O)[C@H](C)NC(=O)[C@@H]1CSSC[C@H](NC(=O)[C@@H](N)CCCCNC(=O)CC[C@H](NC(=O)CC[C@H](NC(=O)CCCCCCCCCCCCCCCCCCC(=O)O)C(=O)O)C(=O)O)C(=O)N[C@@H](CC(N)=O)C(=O)N[C@@H]([C@@H](C)O)C(=O)N[C@@H](C)C(=O)N[C@@H]([C@@H](C)O)C(=O)N1)[C@@H](C)O)C(=O)N1CCC[C@H]1C(=O)N[C@@H](CO)C(=O)N[C@@H](CO)C(=O)N[C@H](C(=O)N[C@@H](CC(N)=O)C(=O)N[C@H](C(=O)NCC(=O)N[C@@H](CO)C(=O)N[C@@H](CCCNC(=N)N)C(=O)N[C@H](C(=O)N[C@@H](Cc1ccc(O)cc1)C(N)=O)[C@@H](C)O)C(C)C)[C@@H](C)O, h-amylin derivative; disulfide bridge and C-terminal amide as told for human amylin; also called compound 52)
3	K([γGlu-γGlu-C20 diacid])CNTATCATQRLADFLRHSSPNFGAIPSSTNVGSDTY-NH2 (disulfide 2-7; N-terminus assumed; SMILES CC[C@H](C)[C@H](NC(=O)[C@H](C)NC(=O)CNC(=O)[C@H](Cc1ccccc1)NC(=O)[C@H](CC(N)=O)NC(=O)[C@@H]1CCCN1C(=O)[C@H](CO)NC(=O)[C@H](CO)NC(=O)[C@H](Cc1c[nH]cn1)NC(=O)[C@H](CCCNC(=N)N)NC(=O)[C@H](CC(C)C)NC(=O)[C@H](Cc1ccccc1)NC(=O)[C@H](CC(=O)O)NC(=O)[C@H](C)NC(=O)[C@H](CC(C)C)NC(=O)[C@H](CCCNC(=N)N)NC(=O)[C@H](CCC(N)=O)NC(=O)[C@@H](NC(=O)[C@H](C)NC(=O)[C@@H]1CSSC[C@H](NC(=O)[C@@H](N)CCCCNC(=O)CC[C@H](NC(=O)CC[C@H](NC(=O)CCCCCCCCCCCCCCCCCCC(=O)O)C(=O)O)C(=O)O)C(=O)N[C@@H](CC(N)=O)C(=O)N[C@@H]([C@@H](C)O)C(=O)N[C@@H](C)C(=O)N[C@@H]([C@@H](C)O)C(=O)N1)[C@@H](C)O)C(=O)N1CCC[C@H]1C(=O)N[C@@H](CO)C(=O)N[C@@H](CO)C(=O)N[C@H](C(=O)N[C@@H](CC(N)=O)C(=O)N[C@H](C(=O)NCC(=O)N[C@@H](CO)C(=O)N[C@@H](CC(=O)O)C(=O)N[C@H](C(=O)N[C@@H](Cc1ccc(O)cc1)C(N)=O)[C@@H](C)O)C(C)C)[C@@H](C)O, h-amylin derivative; disulfide bridge and C-terminal amide as told for human amylin; also called compound 2)
1.28	{C20 diacid-γGlu}-KCNTATCATQRLAEFLRHSSPNFGAIPSSTNVGKNTY-NH2 (disulfide 2-7; SMILES CC[C@H](C)[C@H](NC(=O)[C@H](C)NC(=O)CNC(=O)[C@H](Cc1ccccc1)NC(=O)[C@H](CC(N)=O)NC(=O)[C@@H]1CCCN1C(=O)[C@H](CO)NC(=O)[C@H](CO)NC(=O)[C@H](Cc1c[nH]cn1)NC(=O)[C@H](CCCNC(=N)N)NC(=O)[C@H](CC(C)C)NC(=O)[C@H](Cc1ccccc1)NC(=O)[C@H](CCC(=O)O)NC(=O)[C@H](C)NC(=O)[C@H](CC(C)C)NC(=O)[C@H](CCCNC(=N)N)NC(=O)[C@H](CCC(N)=O)NC(=O)[C@@H](NC(=O)[C@H](C)NC(=O)[C@@H]1CSSC[C@H](NC(=O)[C@H](CCCCN)NC(=O)CC[C@H](NC(=O)CCCCCCCCCCCCCCCCCCC(=O)O)C(=O)O)C(=O)N[C@@H](CC(N)=O)C(=O)N[C@@H]([C@@H](C)O)C(=O)N[C@@H](C)C(=O)N[C@@H]([C@@H](C)O)C(=O)N1)[C@@H](C)O)C(=O)N1CCC[C@H]1C(=O)N[C@@H](CO)C(=O)N[C@@H](CO)C(=O)N[C@H](C(=O)N[C@@H](CC(N)=O)C(=O)N[C@H](C(=O)NCC(=O)N[C@@H](CCCCN)C(=O)N[C@@H](CC(N)=O)C(=O)N[C@H](C(=O)N[C@@H](Cc1ccc(O)cc1)C(N)=O)[C@@H](C)O)C(C)C)[C@@H](C)O, h-amylin derivative; disulfide bridge and C-terminal amide as told for human amylin; also called compound 36)
